The source of these data is US5354664.

The target of assay [1] is bovine thrombin (bovine) (UniProt P00735).
Assay [2] deals with bovine fibrinogen (bovine).
For a further assay, the target named is human fibrinogen (human) (UniProt P02671).
The target in assay [3] is bovine thrombin (bovine) (UniProt P00735). This is another data set of the same source.
For assay [4] the target is unchanged. The source holds these as a separate data set.

Chain of human urine derived thrombin-binding substance obtained using a recombinant DNA technique (r-UTM) (receptor) (chain): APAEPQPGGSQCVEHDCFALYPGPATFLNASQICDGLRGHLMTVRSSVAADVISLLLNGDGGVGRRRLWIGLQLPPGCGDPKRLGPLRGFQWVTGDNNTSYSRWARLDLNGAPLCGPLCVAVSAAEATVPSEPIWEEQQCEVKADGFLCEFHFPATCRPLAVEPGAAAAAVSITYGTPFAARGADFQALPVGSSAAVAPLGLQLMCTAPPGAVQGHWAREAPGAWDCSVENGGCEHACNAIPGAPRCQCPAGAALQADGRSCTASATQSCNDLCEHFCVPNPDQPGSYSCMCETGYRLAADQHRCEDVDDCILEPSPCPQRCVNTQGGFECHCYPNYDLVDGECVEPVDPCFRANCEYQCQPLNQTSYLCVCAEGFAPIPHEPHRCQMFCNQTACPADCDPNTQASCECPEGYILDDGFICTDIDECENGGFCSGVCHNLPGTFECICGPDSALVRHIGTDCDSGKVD

On to “human antithrombin III (from UniProt P01008)”, for which, in the assay with bovine thrombin (bovine) [1], the clotting time, control, ATIII (+) is 49.5 s.
In turn, “bovine thrombin (from UniProt P00735) (enzyme)” yielded a Coagulation time (sec), control in assay [2] of 28.1 s. The clotting time, control, ATIII (-) with human fibrinogen (human) came out at 43.3 s.
Substance “human urine derived thrombin-binding substance obtained using a recombinant DNA technique (r-UTM) (receptor)” yielded an IC50 (time required for the coagulation) in the assay with bovine thrombin (bovine) [3] of 80 nM. For the same substance, the Coagulation time with bovine thrombin (bovine) [4] stood at 29.6 s. In the assay with bovine thrombin (bovine) [1], this substance came in with a clotting time, ATIII (+) (human antithrombin III 250 µg/ml) of 80.8 s and a clotting time, ATIII (-) of 61.8 s.
